The nanobody polyreactivity screen of Harvey et al. (2022)

Assay: yeast display, Sf9 membrane polyspecificity reagent, FACS + sequencing; frameworks hold sequencing errors
Method in brief: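 In a synthetic yeast display library (Saccharomyces cerevisiae BJ5465), nanobody expression was induced with galactose for 36–48 hours. FACS gates were set low and high (top ~1%) using anti-HA fluorescence for expression and streptavidin fluorescence for binding of the Sf9 membrane reagent. Each polyreactivity label is drawn from the gate of origin.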

Sequence | polyreactivity (PSR sort gate)
QVQLVESGGGLVQAGGSLRLTCAASGSTFLYYAMGWSREGPGNERELVATITHGGATNYADSVKGRFTISRDNAKNTVYLELNSLIPDDTAVYYCATDSYHYSYGYASLPEYDYWGHGTQVTVSS | low polyreactivity
QVQLVESGGGLVQAGGSLRLTCAASGSTFNRYAMGWYRQAPGKERELVAAITSTGGTNYADSVKGRFTISLDNAKNTVYLQMNSLKPEDTAFYYCAKRWLRWRSNYWGQGTQVTVSS | high polyreactivity
QVQLVESGGGLVQAGGSLRLTCAASGSTFQHYAMGWYRQAPGKEMELVAAITNTGGSTYYADSVKGRFTISRDNAKNTVYLQMNSLKPEDNAVYYCATVARRYGYPGYYWGQGTQVTVSS | low polyreactivity
QVQLVESGGGLVQAGGSLRLTCAASGSTFRGNTMGWSRQAPGKERELVAAISWDGGTTYYADSVKGRFTISRDNAKNTVYLQMNCLKPEDTAVYYCAADWTGQEYEYWGQGTQVTVSS | low polyreactivity
QVQLVESGGGLVQAGGSLRLTCAASGSTFTAYAMGWYRQAPGKERELVADISDSGGSTYYADSVKGRFTISRDNAKNTVYLQMNSLIPEDTAVYYCAVDVRAYVVSKFDSWGQGTQVTVSS | low polyreactivity
QVQLVESGGGLVQAGGSLRLTCAASGSTFWFYAMGWYRQAPGKERELVATITIGGRTYADSVKGRYTISRDNAKNTVYLQMNSLKPEDTAVYYCAARRVRLEYVYGRYDYWGQGTQVTVSS | low polyreactivity
QVQLVESGGGLVQAGGSLRLTCAASGSTFWYYAMGWYRQAPGKERELVASITYSGGSTYYADSVKGRFTISRDNAKNTVYLQMNSLKPEDTAVYYCAKDGVSPSLRAYAAGYDYWGQGTQVTVSS | low polyreactivity
QVQLVESGGGLVQAGGSLRLTCAASGSTFYSNAMGWYRQATGKERELVASIRFSGVITTYADSVKGRFTISRDNAKNTVYLQMNSLKPEDTAVYYCAAGYLSTTAYDYWGQGTQVTVSS | low polyreactivity
QVQLVESGGGLVQAGGSLRLTCAASGTIFYYNAMRWYRQAPGKERELVAAISWSGSRTYYADSVKGRFTISRDNAKITVYLQMNSLKPEDTAVYYCAAVVRFPFTYDYWGQGTQVTVSS | high polyreactivity
QVQLVESGGGLVQAGGSLRLTCAASGVTFRYYAMVWYRQAPGKERELVAAITGSGTRTYYADSVKGRFTISRDNAKNTLYLQMNSLKPEDTAVYYCNAPRQPRWFDYWGQGTQVTVSS | high polyreactivity
QVQLVESGGGLVQAGGSLRLTCAASRLTFDDNAMGWYRQAPGKERELVAAISYNGGSTYYADSVKGRFTISRDNAKNTVYLQMNSLKPEDTAVYYCAADISVGRYGDMDYWGQGTQVTVSS | low polyreactivity
QVQLVESGGGLVQAGGSLRLTCAASVSIFPHYTMGWYRPAPGKERELVDAISNYGSSTYYADSVKGRFTISRDNAKNTVYLQMNSLKPEDSEVYYCNADDYGYSPGVNYWGQGTQVTVSS | low polyreactivity
QVQLVESGGGLVQAGGSLRLTCAAYGRIFRGYAMGWYRQAPGKERDLVAAISGSGGSTYNADSVKGRFTISRDNAKNTVYLQMNSLKPEDTAVYYCNAGWYFYGETTDDYWGQGTQVTVSS | low polyreactivity
QVQLVESGGGLVQAGGSLRLTCAAYGRIYINTMGWYRQPPGKERELVAAITWSGGNTYYADSVKGRFTISRDNAKNTVYLQMNSLKPEDTAVYYWAVGGYLRSVSYIRLGNYYWGQGTQVTVSS | high polyreactivity
QVQLVESGGGLVQAGGSLRLTFAASGINLYDNVMGWYRTAPGKERELVAAISSSGTTKYYADSVKGRFTISRDYAKNTFYLQMNSLNPEDTAVYYCAADGITWYAIAYYYWGQGTQVTVSS | high polyreactivity
QVQLVESGGGLVQAGGSLRLTSAASGFTFPYTDMGWYRPAPGKERELVADISSGGSTYYADSVKGRFTISRDNAKINVYLQMISLKPEDTAVYYCAAREAYSIRIYQGFGYWGQGTQVTVSS | low polyreactivity
QVQLVESGGGLVQAGGSLRLTSAASGITFYGYAMGWYRQAPGKETELVAAISRSGSSTYYADSVKGRFTISRYNAKNTVYLQMNSLKPEVTAVYYCAARAWAQWGDYWGQGTQLTVSS | high polyreactivity
QVQLVESGGGLVQAGGSLRLTSAASGSIFPYNAMGWYRPAPGKDSELLARISWSGGSTYYADSVKGRFTISRDNAKNTVYLQMKSLKPEDTALYYGAATIIFDAQYRFYYWGQGTQVTVSS | low polyreactivity
QVQLVESGGGLVQAGGSLRLTSAASGSIFQPYAMGWYRQAPVKERELVASIRGSAGSTHYADSVKGRFTISRDNAKNTVYLQMNSLKPEDTAVYYCAARAVASHFSPRLYGYWGQGTQVTVSS | high polyreactivity
QVQLVESGGGLVQAGGSLRLTSAGSGGILPKNAMGWSRQAPGKERELVADISTRGTSTYYADSVKGRFTISRDIAKNTVYLQMNSVKPEVTAVYYCANCRDYIGYDYWGQGSQVTVSS | low polyreactivity
QVQLVESGGGLVQAGGSLRVSCAASGFTFALYAMGWYRQAPGKERELVAAISWSGGTTYYADSVKGRFTISRDNEKNTVDLQMNSLNPEDTAVYYCNAYTRSRGYDYWGQGTQVTVSS | high polyreactivity

Sequence | polyreactivity (PSR sort gate)
QVQLVESGGGLVQAGGSLRVSCAASGFTFGSYAMGWYRQSPGKERELVAVITRSGRTNYADSVKGRFTISRDNAKNTVYLQMNSLKPEDTAVYYCNADDVDDEVSPDLTEMDYWGQGTQVTVSS | low polyreactivity
QVQLVESGGGLVQAGGSLRVSCAASGGIFGWYAMGWSRQAPGKERELVATITWRGGRTYYADSVKGRCTISRDNAKNTVYLQLTSLKPESTAVYYCTAEWLWYDAGYRYTIRDSWGQGTQVTESS | low polyreactivity
QVQLVESGGGLVQAGGSLRVSCAASGGIFWYYTMGWYRQAPGKERELVATISSGGRTYYADSVKGRFTISRDNAKNTVYLQMNSLKPEDTAVYYCAAVGWYHDYYWGQGTQVTVSS | high polyreactivity
QVQLVESGGGLVQAGGSLRVSCAASGIFPAYDMGWYRQAPGKDRELVASISADSGSTHYADSVKGRFTISRDNAKNTVYFQMNSLKPEDTAVYYCAADLGYRTGDYYWGQGTQVTVSS | low polyreactivity
QVQLVESGGGLVQAGGSLRVSCAASGIIFYGYAMGWYRQAPGKEMELVAVITSGGSTNYADSVKGRFTISRDNAKNTVYLQMNSLKPEDTAVYYCAAKYHYFGFRYDYWGQGTQVTVSS | high polyreactivity
QVQLVESGGGLVQAGGSLRVSCAASGRIIPSYAMGWYRQAPGKERELVAVIRSSVDGTYYADSVKGRFTISRDNAKNTVYLQMNSLKPEDTAVYYCAADSYPFFNLNQYPVREGEYGHWGQGTQVTVSS | low polyreactivity
QVQLVESGGGLVQAGGSLRVSCAASGRILSRNAMGWYRQAPGKERELVAAISISGGSTYYADSVKGRFTISRDNAKNTVYLQMNSLKPEDTAVYYCNTAYYGSRKYDYWGQGTQVTVSS | high polyreactivity
QVQLVESGGGLVQAGGSLRVSCAASGRTFGPYAMGWYRQAPGKERELVAAINSGDRTYYADSVKGRFTISRDNAKNTVYLQMNSLKQEDTAVYYCNARSRRPDDYWGQGTQVTVSS | low polyreactivity
QVQLVESGGGLVQAGGSLRVSCAASGRTFRYYDMGWYRQAPGKEREFVAAITWRGGSTYYADSVKGRFTISRDNAKNTVYLQMNSLKPEDTAVYYCAADPFDDQLQYDYWGQGTQVTVSS | low polyreactivity
QVQLVESGGGLVQAGGSLRVSCAASGSFFVPYAMGWYRHAPGKERELVAAISRGGDTNYADSEKGRFTISRDNAKNTVYLQRNSLKPEDTAVYYCNRARHHYSRWHGGYYYWGQGTQETVSS | low polyreactivity
QVQLVESGGGLVQAGGSLRVSCAASGSIFSSYAMGWYRQAPGKDRELVAVINSGGSTNYADSVKGRFTISRDNAKNTVYFQMNTLKPEDTAVYYCNAYGGTFHNSAAEFDYWGQGTQVSVSS | low polyreactivity
QVQLVESGGGLVQAGGSLRVSCAASGSIFYSYGMGWYRQAPVKERELVAAITSSGGGTYYADSVKGRFTISRDNAKNSVYLQMNSLKPEDTAVYYCAAHDRNYNYYPTFYYWGQGTQVSVSS | low polyreactivity
QVQLVESGGGLVQAGGSLRVSCAASGSTFFRYVMGWYRQAPGNERELVARITSSGSTYYADSVKGRFTISRDNAKNTVYLQMNSLKPEDTAVYYCAAVYASYPYRTKFYYWGQGTQVTVSS | high polyreactivity
QVQLVESGGGLVQAGGSLRVSCAASGSTFGGNAMGWYRQAPGKERELSTYYADSVKGRFTISRDNAKNTVYLQMNSLKPEDTAVYYCNTENFYGSDIFDSWGQGTQVTVSS | low polyreactivity
QVQLVESGGGLVQAGGSLRVSCAASGSTFNINAMGWYREAPGKERELVAAISSGGSTNYADSVKGRFTISRDNAKNTVYLQMNSLKPEDTAVYYCNADFILSGWWGIVGYDYWGQGTQVTVSS | low polyreactivity
QVQLVESGGGLVQAGGSLRVSCAASGSTFQYYAMGWYRQAPGKERELVARISDSSANTYYADSVKGRFTISRDNAKNTVYLQMNSLKPEYTAVYYCATRRSHVLSEMDYWGQGTQVTVSS | low polyreactivity
QVQLVESGGGLVQAGGSLRVSCAASGYTFKHYTMGWYREAPGKERELVATISIRGGNTSYADSVKGRFTISRDTAKNTVYLQMNSLKPEDTAVYYCAARSVNAPPRYRQKAGYDYWGQGTQETVSS | high polyreactivity
QVQLVESGGGLVQAGGSLRVSCADSGNILYLYAMGWYREAPGKERELVAAISGNGGRTYYADSVKGRFTISRDNAKNTVYLQMNSLKPEDTAVYDCAADYAGRRFWYYHGLDSWGQGTQVTVSA | high polyreactivity
QVQLVESGGGLVQAGGSLSLICAASGFTFGSNDMGWYRQAPGKERELVAAIDGSGDTYYADSVKGRFTISRDNAKNTVYLQMNSLKPEDTAVYYCARDDNPIYSGVTYDYWGQGTQVTVSS | low polyreactivity
QVQLVESGGGLVQAGGSLSLICAASGFTFVDYAMGWYRQAPGKERELVAAITVSGDSTYYADSVKGRFTISRDIAKNTVYFQMNSLKPEDTAVYYCAADPGYYDGGYWGQGTQVTVSS | low polyreactivity
